From article PMC10983743

Target: T1, Podoplanin (PDPN) on PDPN+ B16-F0 murine melanoma cells (mouse (endogenous in B16-F0)) (UniProt Q62011)
T1 sequence: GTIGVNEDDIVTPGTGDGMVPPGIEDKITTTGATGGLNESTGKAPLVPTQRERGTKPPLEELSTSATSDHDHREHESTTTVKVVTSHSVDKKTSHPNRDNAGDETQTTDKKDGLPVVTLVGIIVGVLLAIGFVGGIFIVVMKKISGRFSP

B1: C-type lectin-like receptor 2 (CLEC-2) on platelets of WT C57BL/6J mice (receptor)
chain: MQDEDGYITLNIKPRKQALSSAEPASSWWRVMALVLLISSMGLVVGLVALGIMSVTQQKYLLAEKENLSATLQQLAKKFCQELIRQSEIKTKSTFEHKCSPCATKWRYHGDSCYGFFRRNLTWEESKQYCTEQNATLVKTASQSTLDYIAERITSVRWIGLSRQNSKKDWMWEDSSVLRKNGINLSGNTEENMNCAYLHNGKIHPASCKERHYLICERNAGMTRVDQLL
  percent of tumour cells associated with platelets, counted under a fluorescence microscope (WT platelets mixed with PDPN+ B16-F0 cells, 1:200 tumour cells:platelets, 20 min at 37 °C): 65%
